Measurements: patent EP1801220A2 (Monsanto Technology, LLC, dated 2007)

Columns and labels:
[1] = molecular target: Cry3Bb.11032 (D165G) (Bacillus thuringiensis) (UniProt Q06117); test: cell-based or functional assay
[2] = molecular target: the molecule itself; test: SDS-PAGE of unheated samples, Coomassie stain, self-association

Molecule	initial channel conductances when the protein is artificially incorporated into the membrane [1]	binding result [2]
Cry3Bb.11032 (D165G) (from UniProt Q06117 1-652)	16 fold	
Cry3Bb.60 (60 kDa trypsin-truncated Cry3Bb, first 159 residues removed) (other, Made by trypsin digestion of solubilized Cry3Bb, which cleaves after R159; The range counts on wild-type Cry3Bb; also called CryB2.60; Δ1-159) SKRSQDRIRELFSQAESHFRNSMPSFAVSKFEVLFLPTYAQAANTHLLLLKDAQVFGEEWGYSSEDVAEFYHRQLKLTQQYTDHCVNWYNVGLNGLRGSTYDAWVKFNRFRREMTLTVLDLIVLFPFYDIRLYSKGVKTELTRDIFTDPIFSLNTLQEYGPTFLSIENSIRKPHLFDYLQGIEFHTRLQPGYFGKDSFNYWSGNYVETRPSIGSSKTITSPFYGDKSTEPVQKLSFDGQKVYRTIANTDVAAWPNGKVYLGVTKVDFSQYDDQKNETSTQTYDSKRNNGHVSAQDSIDQLPPETTDEPLEKAYSHQLNYAECFLMQDRRGTIPFFTWTHRSVDFFNTIDAEKITQLPVVKAYALSSGASIIEGPGFTGGNLLFLKESSNSIAKFKVTLNSAALLQRYRVRIRYASTTNLRLFVQNSNNDFLVIYINKTMNKDDDLTYQTFDLATTNSNMGFSGDKNELIIGAESFVSNEKIYIDKIEFIPVQL		binds
